These results are taken from patent US20240209361A1 (Johns Hopkins, published 2024).

No end group written: not given here. (C16)2‑Glu‑C2 = not defined here

Test [1] concerns the target T1, integrin α5β1 on patient-derived glioblastoma stem-like cells (GBM-CCC-001, GBM-CCC-002, GBM-CCC-003) (human (patient-derived cells), UniProt P08648 42-1049; P05556 21-798).
T1 construct: whole, on cells; Endogenous heterodimer on cells; The cells were not engineered, so other surface proteins were also present; also called α5β1 integrin; integrin α5β1 polypeptide
Put plainly: flow cytometry blocking experiment on GBM-CCC-001 cells; 1 mg/mL free PR_b peptide for 1 hour, then PR_b liposomes for 1 hour at 37° C. As for the experimental part:
(§1) GSC neurospheres (GBM-CCC-001, GBM-CCC-002 and GBM-CCC-003) were collected into 15 mL Falcon tubes, pelleted down, and dissociated into single cells. About 200,000 cells were transferred into Eppendorf tubes in neurosphere culture media and treated with 2 mM calcein loaded PR_b liposomes or non-targeted liposomes at a lipid concentration of 150 μM for 48 hours at 37° C. on a shaker. After the incubation period, cells were pelleted down and washed twice with PBS. Flow cytometric analysis was carried out immediately using BD FACSCanto. Non-treated cells that received only media served as a control. Cell autofluorescence was subtracted from all measurements. For the blocking experiment, the same procedure was followed, except cells were preincubated with 1 mg/mL free PR_b peptide in media for 1 hour at 37° C. prior to addition of the PR_b liposomes and incubation for an additional 1 hour at 37° C.
Background: Flow cytometry measures light scatter and fluorescence of single cells or particles in a stream.

The target in test [2] is T1, integrin α5β1 on patient-derived …. Put plainly: flow cytometry of calcein-loaded liposomes (150 µM lipid) on GBM-CCC-001, GBM-CCC-002 and GBM-CCC-003 cells, 48 hours at 37° C. As for the experimental part: as §1

T1 sequence (P08648 42-1049, chain 1 of 2): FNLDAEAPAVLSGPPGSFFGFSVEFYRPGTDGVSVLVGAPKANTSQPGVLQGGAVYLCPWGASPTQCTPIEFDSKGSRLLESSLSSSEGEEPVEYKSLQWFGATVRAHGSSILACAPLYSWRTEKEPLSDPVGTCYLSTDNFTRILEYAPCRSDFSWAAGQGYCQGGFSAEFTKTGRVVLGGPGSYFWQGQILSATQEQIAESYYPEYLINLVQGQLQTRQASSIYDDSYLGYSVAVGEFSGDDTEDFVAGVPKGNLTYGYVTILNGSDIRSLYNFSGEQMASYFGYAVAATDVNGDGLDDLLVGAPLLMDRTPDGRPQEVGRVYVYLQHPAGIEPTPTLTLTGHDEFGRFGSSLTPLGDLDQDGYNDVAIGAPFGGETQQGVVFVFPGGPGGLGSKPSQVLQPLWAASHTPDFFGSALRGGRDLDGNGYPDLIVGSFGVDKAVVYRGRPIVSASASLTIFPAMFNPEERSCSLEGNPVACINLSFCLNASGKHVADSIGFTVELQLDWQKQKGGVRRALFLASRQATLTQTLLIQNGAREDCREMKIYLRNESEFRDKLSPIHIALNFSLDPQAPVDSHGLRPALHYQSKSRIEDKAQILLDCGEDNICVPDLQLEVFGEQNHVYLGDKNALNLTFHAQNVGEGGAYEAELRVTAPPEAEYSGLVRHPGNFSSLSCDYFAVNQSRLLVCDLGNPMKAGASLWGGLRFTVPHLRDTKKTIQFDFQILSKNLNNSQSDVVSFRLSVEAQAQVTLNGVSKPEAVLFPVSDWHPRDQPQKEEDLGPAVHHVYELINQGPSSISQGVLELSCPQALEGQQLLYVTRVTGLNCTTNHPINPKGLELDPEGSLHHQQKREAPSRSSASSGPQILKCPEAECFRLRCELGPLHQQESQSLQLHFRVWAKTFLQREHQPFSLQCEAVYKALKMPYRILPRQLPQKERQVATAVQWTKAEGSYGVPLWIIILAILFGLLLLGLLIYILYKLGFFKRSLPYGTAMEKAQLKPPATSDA
T1 sequence (P05556 21-798, chain 2 of 2): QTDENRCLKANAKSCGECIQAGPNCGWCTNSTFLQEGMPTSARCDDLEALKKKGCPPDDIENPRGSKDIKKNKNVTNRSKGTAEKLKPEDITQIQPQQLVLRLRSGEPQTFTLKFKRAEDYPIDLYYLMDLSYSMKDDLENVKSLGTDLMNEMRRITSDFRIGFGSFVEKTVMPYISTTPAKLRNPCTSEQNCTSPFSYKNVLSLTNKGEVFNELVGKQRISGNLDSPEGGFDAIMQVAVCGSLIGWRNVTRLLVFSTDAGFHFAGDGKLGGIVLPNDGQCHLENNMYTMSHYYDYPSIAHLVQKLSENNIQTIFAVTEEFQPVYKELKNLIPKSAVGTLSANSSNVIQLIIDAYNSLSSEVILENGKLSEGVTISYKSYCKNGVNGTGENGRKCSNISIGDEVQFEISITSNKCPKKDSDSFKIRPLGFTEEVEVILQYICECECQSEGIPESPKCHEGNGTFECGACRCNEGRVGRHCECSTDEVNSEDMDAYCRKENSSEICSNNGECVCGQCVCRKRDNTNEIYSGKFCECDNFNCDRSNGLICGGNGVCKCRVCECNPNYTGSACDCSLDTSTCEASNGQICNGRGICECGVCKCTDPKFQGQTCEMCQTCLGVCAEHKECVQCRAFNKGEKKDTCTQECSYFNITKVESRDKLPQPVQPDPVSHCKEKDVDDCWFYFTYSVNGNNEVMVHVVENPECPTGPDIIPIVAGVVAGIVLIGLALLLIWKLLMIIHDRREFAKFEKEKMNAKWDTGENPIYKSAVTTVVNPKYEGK

As to KSSPHSRNSGSGSGSGSGRGDSP [free PR_b peptide], the binding result in test [1] is “binds”.
With {(C16)2‑Glu‑C2}-KSSPHSRNSGSGSGSGSGRGDSP (reading uncertain; also: printed as (C16)2-Glu-C2-KSSPHSRNSGSGSGSGSGRGDSP, Synthetic fibronectin-mimetic peptide), the binding result in test [2] is reported as “binds”.
